The target of experiment [1] is BCMAECD-Fc (dimerized, Fc-tagged human BCMA extracellular domain) (human) (UniProt Q02223). Nature of the experiment: SPR; heterogeneous ligand, first site (KD1). Particulars: VHH.
Experiment [2] shares this target. Nature of the experiment: SPR; heterogeneous ligand, first site (kd1). The note with it: VHH.
For experiment [3], the target named is BCMAECD-His (monomeric, His-tagged human BCMA extracellular domain) (human) (UniProt Q02223). Nature of the experiment: SPR; heterogeneous ligand, first site (kd1). The note with it: VHH.
In experiment [4] the target is BCMAECD-Fc (dimerized, Fc-tagged human BCMA extracellular domain) (human) (UniProt Q02223). The experiment in a line: SPR; heterogeneous ligand, second site (KD2). The note with it: VHH.
Experiment [5] has as its target BCMAECD-His (monomeric, His-tagged human BCMA extracellular domain) (human) (UniProt Q02223). Nature of the experiment: SPR; heterogeneous ligand, second site (KD2). The note with it: VHH.
In experiment [6] the target is BCMAECD-Fc (dimerized, Fc-tagged human BCMA extracellular domain) (human) (UniProt Q02223). Nature of the experiment: SPR; heterogeneous ligand, second site (kd2). The note with it: VHH.
In experiment [7] the target is BCMAECD-His (monomeric, His-tagged human BCMA extracellular domain) (human) (UniProt Q02223). The experiment in a line: SPR; heterogeneous ligand, second site (kd2). The note with it: VHH.
Experiment [8] deals with BCMAECD (synthesized extracellular domain of human B-cell maturation antigen, residues 1-54) (human) (UniProt Q02223). Nature of the experiment: AUC; sedimentation velocity; complexes formed by mixing nanobody with excess BCMAECD (molar ratio 1:4, overnight at 4 °C); 1 mg/ml, 45,000 rpm, 20 mM Tris pH 8.0, 100 mM NaCl, 4 °C.
Experiment [9] addresses BCMAECD-Fc (dimerized, Fc-tagged human BCMA extracellular domain) (human) (UniProt Q02223). Nature of the experiment: SPR; Biacore 8K, 25 °C, 10 mM HEPES pH 7.4, 150 mM NaCl, 0.05% Tween 20; BCMAECD-Fc immobilised by amine coupling on CM5; nanobodies as analytes (five two-fold dilutions); Langmuir model for Nb1 and Nb2, heterogeneous ligand model for NbT.
Experiment [10] concerns the target BCMAECD-His (monomeric, His-tagged human BCMA extracellular domain) (human) (UniProt Q02223). The experiment in a line: SPR; Biacore 8K, 25 °C, 10 mM HEPES pH 7.4, 150 mM NaCl, 0.05% Tween 20; BCMAECD-His immobilised by amine coupling on CM5; nanobodies as analytes (five two-fold dilutions); Langmuir model for Nb1 and Nb2, heterogeneous ligand model for NbT.

Here are results for two substances from paper PMC10703879.

BCMAECD-His (monomeric, His-tagged human BCMA extracellular domain) (human), sequence (Q02223 1-54): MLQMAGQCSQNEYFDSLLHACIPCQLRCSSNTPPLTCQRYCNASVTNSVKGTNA
BCMAECD-Fc (dimerized, Fc-tagged human BCMA extracellular domain) (human), sequence (Q02223 1-54): as above
BCMAECD (synthesized extracellular domain of human B-cell maturation antigen, residues 1-54) (human), sequence (Q02223 1-54): as above

“NbT (cilta-cel nanobody tandem, Nb1 and Nb2 in tandem)”: the equilibrium dissociation constant (Kd) came out at 0.00361 nM in [1], 3.54 nM in [4] and 4.27 nM in experiment [5]. Also, the off-rate (koff) in experiment [2] was 3.28e-05 s⁻¹; in [3], 0.000118 s⁻¹; in experiment [6] it was 0.0133 s⁻¹; in experiment [7], 0.0191 s⁻¹.
For the substance “NbT (cilta-cel nanobody tandem, Nb1 and Nb2 in tandem) (VHH)”, the stoichiometry N (NbT per BCMAECD (printed 2 to 4)) in experiment [8] was found to be 0.5. In addition, in experiment [9], the KD of the higher-affinity site (heterogeneous ligand model) was found to be 0.0036 nM. The substance also gave a KD of the stronger site (heterogeneous ligand model) in [10] of 0.011 nM.
